The record followed here is paper PMC8782954, “Interplay between an ATP-binding cassette F protein and the ribosome from Mycobacterium tuberculosis” (Nature Communications, 2022).

First the molecules themselves.
B1: ribosomal protein uS7 of the Mtb 30S subunit (natural protein)
chain: MPRKGPAPKRPLVNDPVYGSQLVTQLVNKVLLKGKKSLAERIVYGALEQARDKTGTDPVITLKRALDNVKPALEVRSRRVGGATYQVPVEVRPDRSTTLALRWLVGYSRQRREKTMIERLANEILDASNGLGASVKRREDTHKMAEANRAFAHYRW
B2: MtbEttA (energy-dependent translational throttle A from Mycobacterium tuberculosis, Rv2477c) (natural protein)
chain: SMAEFIYTMKKVRKAHGDKVILDDVTLSFYPGAKIGVVGPNGAGKSSVLRIMAGLDKPNNGDAFLATGATVGILQQEPPLNEDKTVRGNVEEGMGDIKIKLDRFNEVAELMATDYTDELMEEMGRLQEELDHADAWDLDAQLEQAMDALRCPPADEPVTNLSGGERRRVALCKLLLSKPDLLLLDEPTNHLDAESVQWLEQHLASYPGAILAVTHDRYFLDNVAEWILELDRGRAYPYEGNYSTYLEKKAERLAVQGRKDAKLQKRLTEELAWVRSGAKARQAKSKARLQRYEEMAAEAEKTRKLDFEEIQIPVGPRLGNVVVEVDHLDKGYDGRALIKDLSFSLPRNGIVGVIGPNGVGKTTLFKTIVGLETPDSGSVKVGETVKLSYVDQARAGIDPRKTVWEVVSDGLDYIQVGQTEVPSRAYVSAFGFKGPDQQKPAGVLSGGERNRLNLALTLKQGGNLILLDEPTNDLDVETLGSLENALLNFPGCAVVISHDRWFLDRTCTHILAWEGDDDNEAKWFWFEGNFGAYEENKVERLGVDAARPHRVTHRKLTRG
notes: also called Mtb Rv2477c

For series [1], the target named is B2. The experiment in a line: cryo-EM structure. The following applies: both partners purified.
The series “SEC” concerns the molecule itself. Description: SEC.

In the case of B1, the binding result in series [1] is “binds”.
B2: the “stoichiometry N” value in the series “SEC” turned out to be 2.
